Laboratory results from patent publication US20160039936A1, “FIBROBLAST GROWTH FACTOR RECEPTOR INHIBITION FOR THE TREATMENT OF DISEASE” (UNIVERSITY OF MIAMI, priority 2011, published 2016).

Columns and labels:
[1] = system: HEK293 cells; test: FGF-FGFR-dependent signaling in HEK293 cells (Western blot, immunoprecipitation); assay type: cell-based; settings: for phosphorylated PLCγ levels / phosphorylation of FRS2γ (FGF2: FRS2γ and ERK1/2): HEK293, untransfected, 30 minutes
Protocol: HEK293 cells were grown in 6-well plates or 10 cm-culture dishes and transiently transfected with FuGene 6 (Roche) according to the manufacturer's protocol. After 36 hours, cells were serum-starved for 12-16 hours followed by treatment with FGF23 or FGF2 at 25 ng/ml for 15 or 30 minutes.
HEK293 cells, NRVM or NMVM were treated with growth factors for 30 minutes to analyze activation of signal transduction mediators, or for 48 hours to analyze expression levels of hypertrophic marker proteins. Cells were scraped from 6-well plates using 500 μl CHAPS extraction buffer (20 mM Tris-HCl pH7.5, 500 mM NaCl, 0.5% CHAPS, protease inhibitor cocktail (Roche), protein phosphatase inhibitors [Sigma-Aldrich]) and incubated on ice for 30 minutes. The cell lysate was centrifuged at 14,000 rpm and 4° C. for 30 minutes, and the supernatant boiled in sample buffer and analyzed by SDS-PAGE and immunoblotting. For protein extraction from mouse hearts, tissue was isolated, minced and homogenized in RIPA extraction buffer (50 mM Tris-HCl pH 7.5, 200 mM NaCl, 1% Triton X-100, 0.25% DOC, 1 mM EDTA, 1 mM EGTA, protease and phosphatase inhibitors) at 1:10 (w:v), and protein lysates were prepared as described above.
Antibodies to β-MHC (NOQ7.5.4D; Sigma-Aldrich; 1:1,000), RCAN1 (rabbit polyclonal, provided by Timothy McKinsey, University of Colorado, Denver, Colo. (Harrison et al., 2004); 1:1,000), FGFR4 (C-16; Santa Cruz; 1:1,000), total and phospho-ERK1/2 (Cell Signaling; 1:1,000), total and phospho-FRS2α (Santa Cruz 1:1,000; Cell Signaling; 1:1,000), total and phospho-PLCγ (Cell Signaling; 1:1,000), FLAG (M5, Sigma-Aldrich; 1:10,000), V5 (Sigma-Aldrich; 1:10,000) and GAPDH (Abcam; 1:10,000) were used as primary antibodies in 5% milk in TBST (RCAN1, FGFR4, FLAG, V5), 5% BSA in TBST (phospho-FRS2α) or 1.5% FBS in TBS (β-MHC, total and phospho-ERK1/2, total FRS2α, total and phospho-PLCγ, GAPDH) for 1-2 hours. Horseradish peroxidase-conjugated goat-anti-mouse and goat-anti-rabbit (Promega; 1:10,000) were secondary antibodies.
HEK293 cells in 10 cm-dishes were treated with growth factors for 30 minutes, cells were scraped using 1 ml IP buffer (50 mM Tris-HCl pH7.5, 150 mM NaCl, 5 mM MgCl2, 2 mM EGTA, 1% Triton X-100, 5% Glycerol, protease and phosphatase inhibitors), and protein lysates were prepared as described above. V5-tagged proteins were immunoprecipitated using 25 μl of anti-V5 agarose beads (Sigma-Aldrich). After 5 washes in IP buffer, proteins were eluted in 100 μl of sample buffer and analyzed by SDS-PAGE and immunoblotting. For endogenous immunoprecipitation studies from NRVM, cells in 10cm-dishes were treated with growth factors for 30 minutes. Some cells were pre-treated with FGFR4 blocking antibody at 10 μg/ml for 1 hour (human monoclonal, U3-11; U3Pharma). Cells were scraped in 1 ml RIPA buffer, and protein lysates were incubated with 2 μg of anti-FGFR4 (C-16; Santa Cruz) or anti-GFP (Clonetech) as negative control at 4° C. under rotation overnight. We added 50 μl of a 1:1 mix of Protein A on sepharose beads and Protein G on agarose beads that were previously equilibrated in RIPA buffer, followed by incubation at 4° C. under rotation for 2 hours, protein elution in sample buffer, and SDS-PAGE and Western blot analyses.

[2] = system: isolated NRVM; test: Hypertrophic marker expression in NRVM (RT-PCR, α-actinin immunoblot); assay type: cell-based, rat; settings: for α-actinin protein levels: 48 h, immunoblotting; for expression of ANP and BNP / expression of medium chain acyl-CoA dehydrogenase (MCAD) / expression of α-myosin heavy chain (α-MHC) / expression of β-myosin heavy chain (β-MHC): RT-PCR
Protocol: RNA was purified from isolated NRVM using the RNeasy kit (Qiagen), and from mouse cardiac and renal tissue using 1 ml per 100 mg tissue TRIzol (Invitrogen), following the manufacturers' protocol. Prior to RT-PCR, total RNA samples were digested with DNase I (Roche) and RNA was transcribed into cDNA using Superscript II (Invitrogen). For RT-PCR, 100 ng cDNA, AmpliTaq Gold DNA polymerase (Applied Biosystems) and sequence specific primers were used. 30 cycles (95° C., 5 minutes-53° C., 30 seconds-72° C., 30 seconds) were run on a GeneAmp PCR System 9700 (Applied Biosystems) and reactions were analyzed on a 2% agarose gel. Ethidium bromide signals were captured with a Bio-Rad Gel Doc XR system and quantified by densitometry using ImageJ software (NIH). Values were normalized to GAPDH signals and cDNAs from three independent experiments were analyzed. For nested PCR, 100 ng cDNA were used in the first run (15 cycles) with sequence specific outside primers. Five percent of the reaction was used as template for the second run (25 cycles) with sequence specific inside primers, and the total reaction was analyzed by agarose gel electrophoresis.
NRVM were scraped from a 6 cm-plate using 400 μl CHAPS extraction buffer [(20 mM Tris-HCl pH7.5, 500 mM NaCl, 0.5% CHAPS, protease inhibitor cocktail (Roche), protein phosphatase inhibitors (Sigma-Aldrich)] and incubated on ice for 15 minutes. The cell lysate was centrifuged at 14,000 rpm and 4° C. for 15 minutes and the supernatant boiled in sample buffer and analyzed by SDS-PAGE and immunoblotting as described before (Faul et al., Cell Biol., 169(3):415-424, 2005; Faul et al., Mol. Cell Biol., 27(23):8215-8227, 2007). For protein extraction from mouse hearts, tissue was isolated, minced and homogenized in CHAPS extraction buffer at 1:10 (w:v) and protein lysates were prepared as described above. Antibodies to sarcomeric α-actinin (EA-53; Sigma-Aldrich; 1:1000), total (Cell Signaling; 1:1000) and phospho-ERK (Cell Signaling; 1:1000), total and phospho-NFAT-c1 (Santa Cruz Biotechnology; 1:200), total and phospho-Akt (Cell Signaling; 1:1000 and 1:2000), and GAPDH (Abcam; 1:10,000) were used as primary antibodies and horseradish peroxidase conjugated goat-anti-mouse and goat-anti-rabbit (Promega; 1:20,000) were secondary antibodies.

B1: FGF2: recombinant mouse FGF2 (Ala11-Ser154) (R&D Systems) (protein)
chain: ALPEDGGAAFPPGHFKDPKRLYCKNGGFFLRIHPDGRVDGVREKSDPHVKLQLQAEERGVVSIKGVCANRYLAMKEDGRLLASKCVTEECFFFERLESNNYNTYRSRKYSSWYVALKRTGQYKLGSKTGPGQKAILFLPMSAKS
FGF2-mediated FRS2α/Ras/MAPK signaling ([1]; HEK293, presence or absence of α-klotho or β-klotho): unaffected | phosphorylated PLCγ levels [1]: had no effect | phosphorylation of FRS2γ (FGF2: FRS2γ and ERK1/2) [1]: increased | α-actinin protein levels [2]: increase | expression of ANP and BNP [2]: increased | expression of medium chain acyl-CoA dehydrogenase (MCAD) [2]: decreased | expression of α-myosin heavy chain (α-MHC) [2]: decreased | expression of β-myosin heavy chain (β-MHC) [2]: increased

B2: FGF23: recombinant mouse FGF23, 6His-tagged Tyr25-Val251 (Arg179Gln) (R&D Systems) (protein)
chain: YPDTSPLLGSNWGSLTHLYTATARTSYHLQIHRDGHVDGTPHQTIYSALMITSEDAGSVVITGAMTRRFLCMDLHGNIFGSLHFSPENCKFRQWTLENGYDVYLSQKHHYLVSLGRAKRIFQPGTNPPPFSQFLARRNEVPLLHFYTVRPRRHTQSAEDPPERDPLNVLKPRPRATPVPVSCSRELPSAEEGGPAASDPLGVLRRGRGDARGGAGGADRCRPFPRFV
modifications: left off: small tags and cut ends
phosphorylated PLCγ levels [1]: increased | phosphorylation of FRS2γ (FGF2: FRS2γ and ERK1/2) [1]: did not induce | phospho-PLCγ levels ([1]; HEK293 overexpressing FGFR4Arg385, 30 minutes): further increased | ERK1/2 phosphorylation ([1]; HEK293 overexpressing V5-tagged FGFR4): does not increase | phosphorylation of PLCγ ([1]; HEK293 overexpressing ectopic β-klotho): induced phosphorylation | FGFR isoform binding to PLCγ (co-precipitation) ([1]; HEK293 transfected with V5-tagged FGFR1-4, 30 minutes): only FGFR4 bound PLCγ | levels of phospho-ERK and Egr-1 ([1]; HEK293 transiently expressing FLAG-tagged klotho): increased levels | activation of PLCγ ([1]; HEK293 with ectopic α-klotho): did not activate | phosphorylation of FRS2α and ERK1/2 ([1]; HEK293 with ectopic α-klotho): increased | α-actinin protein levels [2]: increase | expression of ANP and BNP [2]: increased | expression of medium chain acyl-CoA dehydrogenase (MCAD) [2]: decreased | expression of α-myosin heavy chain (α-MHC) [2]: decreased | expression of β-myosin heavy chain (β-MHC) [2]: increased
